The data set deals with T1, ZC3H11-119 (Trypanosoma brucei, UniProt Q57W26 1-119).
T1 sequence: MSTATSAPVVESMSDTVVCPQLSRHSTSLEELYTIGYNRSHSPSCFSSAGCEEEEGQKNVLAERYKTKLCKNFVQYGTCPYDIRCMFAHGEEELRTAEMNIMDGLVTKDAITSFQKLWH
Kind of data set: EMSA; limiting probe titration; no binding; 20 mM Tris-HCl pH 8.0, 50 mM NaCl, 10 uM ZnCl2, 0.01% IGEPAL CA-630, 0.1 mg/ml tRNA, 10 ug/ml heparin (legends: 5 ug/ml or 10 mg/ml), room temperature 30 min; 100 pmol protein, 1 pmol RNA. The settings on record: protein: recombinant; tags: His10 (called His-tagged).

On to UUUUUUUUUUUUUUUUUUUUUUU (ssRNA) [U23], for which the binding result is given as “no binding”.

Source of the values: publication PMC3616968, “Post-Transcriptional Regulation of the Trypanosome Heat Shock Response by a Zinc Finger Protein”.
